According to PMC8908248 (The Journal of Biological Chemistry, 2022):
One block for each molecule: values may come before it.

What was measured:
[1] = target: homodimeric sulfite oxidase Mo domain (Mo/Mo) (human); assay: SEC
SEC = target: the molecule itself; assay: SEC

stoichiometry N [1]: 2
Molecule: homodimeric sulfite oxidase Mo domain (Mo/Mo) (domain or fragment)

B1: mature full-length human sulfite oxidase (WT SOX/SOX homodimer) (enzyme, UniProt P51687 80-545, looked up)
chain: ESTHIYTKEEVSSHTSPETGIWVTLGSEVFDVTEFVDLHPGGPSKLMLAAGGPLEPFWALYAVHNQSHVRELLAQYKIGELNPEDKVAPTVETSDPYADDPVRHPALKVNSQRPFNAEPPPELLTENYITPNPIFFTRNHLPVPNLDPDTYRLHVVGAPGGQSLSLSLDDLHNFPRYEITVTLQCAGNRRSEMTQVKEVKGLEWRTGAISTARWAGARLCDVLAQAGHQLCETEAHVCFEGLDSDPTGTAYGASIPLARAMDPEAEVLLAYEMNGQPLPRDHGFPVRVVVPGVVGARHVKWLGRVSVQPEESYSHWQRRDYKGFSPSVDWETVDFDSAPSIQELPVQSAITEPRDGETVESGEVTIKGYAWSGGGRAVIRVDVSLDGGLTWQVAKLDGEEQRPRKAWAWRLWQLKAPVPAGQKELNIVCKAVDDGYNVQPDTVAPIWNLRGVLSNAWHRVHVYVSP
stoichiometry N (SEC): 2
